These results are taken from article PMC12218921, “An adaptive peptide-binding site in ubiquitin receptor hRpn13 revealed by structural studies” (Nature Communications, 2025).

By EC50 is commonly meant the concentration needed to bring the measured effect to its halfway point.

No end group written: not given here.

The chains are these.
B1: TAMRA-labeled hRpn2 (940–953) (peptide)
peptide: QEPEPPEPFEYIDD
modifications: also: TAMRA attached, position not given here
notes: also called TAMRA-hRpn2; source: bought: New England Peptide
B2: hRpn13 Pru (1–150) (domain or fragment, human)
chain: GPGSMTTSGALFPSLVPGSRGASNKYLVEFRAGKMSLKGTTVTPDKRKGLVYIQQTDDSLIHFCWKDRTSGNVEDDLIIFPDDCEFKRVPQCPSGRVYVLKFKAGSKRLFFWMQEPKTDQDEEHCRKVNEYLNNPPMPGALGASGSSGHELSAL
notes: four non-native residues (aG-bP-cG-dS) left at the N-terminus after PreScission cleavage of the purification tag; hRpn13 (ADRM1), human, residues 1-150 holding the Pru domain; 15N-labelled (M9 medium) for the NMR experiments, unlabelled (LB) for crystallography; S4-N20 are not seen in the electron density; also called hRpn13 (1–150); Pru-A; source: E. coli BL21(DE3) pLysS, purified (Talon resin, …)
B3: EDGEGEE peptide (peptide)
peptide: EDGEGEE
notes: acidic peptide chosen by the authors; also called acidic peptide; source: synthetic peptide (GenScript)
B4: hRpn13_ΔMTT (domain or fragment, human)
chain: GSSGALFPSLVPGSRGASNKYLVEFRAGKMSLKGTTVTPDKRKGLVYIQQTDDSLIHFCWKDRTSGNVEDDLIIFPDDCEFKRVPQCPSGRVYVLKFKAGSKRLFFWMQEPKTDQDEEHCRKVNEYLNNPPMPGALGASGSSGHELSAL
notes: hRpn13 (ADRM1), human, hRpn13 (1-150) without M1-T3; 15N-labelled for NMR; also called hRpn13 Pru variant with ENT M1 – T3, aG, and bP deleted; source: E. coli BL21 (DE3), purified (glutathione sepharose, thrombin cleavage, Superdex 75); not shown: GST, N-terminal, cleaved
B5: hRpn2 (940–953) (peptide)
peptide: QEPEPPEPFEYIDD
notes: source: synthetic peptide (GenScript Biotech; for the fluorescence polarization assay bought: New England Peptide)

For the data set “hRpn13_ΔMTT”, the target named is B4. The data set can be described thus: fluorescence polarisation; competition: unlabeled peptide at various concentrations preincubated with 80 nM hRpn13_ΔMTT, then 10 nM TAMRA-hRpn2 (940–953) added; PBS with 1 mM TCEP, room temperature; [Inhibitor] vs response (three parameters) fit; estimated EC50. The conditions noted are these: both partners purified.

Data set [1] concerns the molecule itself. The data set can be described thus: crystal structure; hRpn13 (1–150) at 560 μM in 20 mM HEPES pH 7.5, 100 mM NaCl, 1 mM TCEP; microbatch-under-oil at 4 °C with 0.1 M sodium acetate pH 4.6, 22% PEG3350; one molecule per asymmetric unit, ENT at the interface of Pru molecules of the lattice; 1.85 Å.
Data set [2] concerns the target B1. Put plainly: fluorescence polarisation; hRpn13_ΔMTT titrated against TAMRA-hRpn2 (940–953); PBS with 1 mM TCEP, room temperature; [Agonist] vs response (three parameters) fit. The conditions noted are these: both partners purified. Background: Polarisation of emitted light reports the rotation of a fluorescent probe.
For a further data set, the target named is T1, ubiquitin (human, UniProt P0CG48 1-76).
T1 construct: ubiquitin, human, the 76-residue cut product of the polyubiquitin precursor; source: E. coli Rosetta 2(DE3), untagged, purified (cation exchange, SEC)
The data set can be described thus: NMR titration; 1H-15N HSQC of 0.1 mM 15N-labeled hRpn13_ΔMTT alone and with unlabeled ligand (peptides at varying molar ratios up to 20-fold excess; hRpn2 (940-953) or ubiquitin equimolar, alone or together with 20-fold EDGEGEE; K48-diUb at 4:1, 2:1 and 1:1 hRpn13 to diUb); NMR buffer (20 mM sodium phosphate pH 6.5, 50 mM NaCl, 1 mM TCEP, 10% D2O), 25 °C, 600 MHz. As to conditions: both partners purified.

In the next data set the target is T2, K48-diUb^EDGEGEE (human, UniProt P0CG48 1-76; P0CG48 1-76, K48R, G76 joined by an isopeptide bond to K48 of the other ubiquitin | K48 joined by an isopeptide bond to G76 of Ub-K48R).
T2 construct: Ub-K48R (distal, by the methods): ubiquitin, human; Ub-EDGEGEE (proximal, by the methods): ubiquitin, human; 6-residue linker added to the ubiquitin C-terminal end; Two ubiquitins joined covalently K48-G76; The results call the extended moiety distal, the methods call it proximal; also called K48-linked diubiquitin with Ub-EDGEGEE; source: made enzymatically (E1 from R&D Systems, E2-25K) from …
The data set is described as above. As to conditions: both partners purified.

In another data set the target is T3, K48-diUb^ENT (human, UniProt P0CG48 1-76; P0CG48 1-76, K48R, G76 joined by an isopeptide bond to K48 of the other ubiquitin | K48 joined by an isopeptide bond to G76 of Ub-K48R).
T3 construct: Ub-K48R (distal, by the methods): ubiquitin, human; Ub-ENT (proximal, by the methods): ubiquitin, human; 6-residue linker added to the ubiquitin C-terminal end; Two ubiquitins joined covalently K48-G76; The results call the extended moiety distal, the methods call it proximal; also called K48-linked diubiquitin with Ub-ENT; source: made enzymatically (E1 from R&D Systems, E2-25K) from ubiquitin …
The data set is described as above. The conditions noted are these: both partners purified.

The target of another data set is T4, K48-diUb^D77 (human, UniProt P0CG48 1-76; P0CG48 1-76, K48R, G76 joined by an isopeptide bond to K48 of the other ubiquitin | K48 joined by an isopeptide bond to G76 of Ub-K48R).
T4 construct: Ub-K48R (distal, by the methods): ubiquitin, human; Ub-D77 (proximal, by the methods): ubiquitin, human; additional aspartate at position 77 (Ub-D77); Two ubiquitins joined covalently K48-G76; The results call the extended moiety distal, the methods call it proximal; also called K48-linked diubiquitin; source: made enzymatically (E1 from R&D Systems, E2-25K) from ubiquitin proteins expressed in …
Described as above. As to conditions: both partners purified.

For B1, the binding result with hRpn13_ΔMTT is “binds”.
Turning to B2, in data set [1], the binding result is given as “binds”.
As for B3, in the data set with hRpn13_ΔMTT, the EC50 is 637 ± 51 µM.
As to B4, in data set [2], the concentration giving a half-maximal response (EC50) amounted to 0.043 ± 0.007 µM. The binding result with ubiquitin, in the data set with K48-diUb^EDGEGEE, in the data set with K48-diUb^ENT and with K48-diUb^D77 was “binds” in each case.
For the molecule B5, the EC50 in the data set with hRpn13_ΔMTT is 0.32 ± 0.02 µM.
On the same count and under the same terms, under PPEPFEYIDD (source: bought: New England Peptide) [hRpn2 (944–953)] stands 87 ± 6 µM.
